Laboratory results taken from IntAct's records for PubMed 23942232.

B1: TNF receptor-associated factor 6 (Mus musculus), P70196 (parent)
chain: MSLLNCENSCGSSQSSSDCCAAMAASCSAAVKDDSVSGSASTGNLSSSFMEEIQGYDVEFDPPLESKYECPICLMALREAVQTPCGHRFCKACIIKSIRDAGHKCPVDNEILLENQLFPDNFAKREILSLTVKCPNKGCLQKMELRHLEDHQVHCEFALVNCPQCQRPFQKCQVNTHIIEDCPRRQVSCVNCAVSMAYEEKEIHDQSCPLANIICEYCGTILIREQMPNHYDLDCPTAPIPCTFSVFGCHEKMQRNHLARHLQENTQLHMRLLAQAVHNVNLALRPCDAASPSRGCRPEDPNYEETIKQLESRLVRQDHQIRELTAKMETQSMYVGELKRTIRTLEDKVAEMEAQQCNGIYIWKIGNFGMHLKSQEEERPVVIHSPGFYTGRPGYKLCMRLHLQLPTAQRCANYISLFVHTMQGEYDSHLPWPFQGTIRLTILDQSEALIRQNHEEVMDAKPELLAFQRPTIPRNPKGFGYVTFMHLEALRQGTFIKDDTLLVRCEVSTRFDMGGLRKEGFQPRSTDAGV

Variants of: B1
Details: with ern1_mouse Ern1, Q9EQY0
ern1_mouse Ern1, Q9EQY0, sequence (Q9EQY0 whole entry): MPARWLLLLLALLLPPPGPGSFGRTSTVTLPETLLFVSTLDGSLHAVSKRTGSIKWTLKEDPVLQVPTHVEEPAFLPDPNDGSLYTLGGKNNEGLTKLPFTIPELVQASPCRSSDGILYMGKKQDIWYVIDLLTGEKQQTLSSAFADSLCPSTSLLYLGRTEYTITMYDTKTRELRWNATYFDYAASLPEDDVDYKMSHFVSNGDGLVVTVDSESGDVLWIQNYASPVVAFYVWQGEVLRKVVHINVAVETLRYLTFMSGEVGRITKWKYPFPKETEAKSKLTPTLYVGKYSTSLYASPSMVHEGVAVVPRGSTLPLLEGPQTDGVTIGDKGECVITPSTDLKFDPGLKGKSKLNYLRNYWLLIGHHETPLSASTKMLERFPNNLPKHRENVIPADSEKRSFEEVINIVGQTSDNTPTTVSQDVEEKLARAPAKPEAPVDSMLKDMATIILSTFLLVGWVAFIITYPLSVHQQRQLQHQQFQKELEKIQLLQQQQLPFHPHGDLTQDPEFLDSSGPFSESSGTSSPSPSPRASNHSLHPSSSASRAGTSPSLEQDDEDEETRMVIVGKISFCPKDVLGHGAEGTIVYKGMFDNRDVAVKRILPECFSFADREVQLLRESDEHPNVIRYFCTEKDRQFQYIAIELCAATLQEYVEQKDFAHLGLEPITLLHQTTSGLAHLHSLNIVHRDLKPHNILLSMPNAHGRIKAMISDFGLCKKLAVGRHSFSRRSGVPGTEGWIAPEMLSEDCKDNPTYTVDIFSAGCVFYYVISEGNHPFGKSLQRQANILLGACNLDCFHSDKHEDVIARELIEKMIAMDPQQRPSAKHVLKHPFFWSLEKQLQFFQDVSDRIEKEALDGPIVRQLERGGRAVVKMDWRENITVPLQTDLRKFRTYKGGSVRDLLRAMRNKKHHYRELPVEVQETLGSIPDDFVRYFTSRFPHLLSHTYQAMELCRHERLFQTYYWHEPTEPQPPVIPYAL

Variant | effect of a mutation on the interaction
C70A | increasing interaction
